The values that follow come from patent US7919276.

Substitutions are numbered along the chain they refer to. Read-outs that look alike come from different tables or passages of the source. Ends that are not written are not given here. Some results are limits rather than exact numbers.

The target of test [1] is T1, lysine-acetylated histone H4 peptide SGRGKGG-AcK-GLGK.
T1 chain: SGRGKGGKGLGK
Briefly: NMR titration, 15N-HSQC chemical shift changes against ligand concentration. The following applies: remark: other sources report otherwise.

Test [2] concerns the target T2, lysine-acetylated histone H4 peptide SGRGKGG-AcK-GLGK.
T2 construct: also called H4 AcK-Peptide; AcK peptide
T2 peptide: SGRGKGGK(Ac)GLGK
Described as above.

For test [3], the target named is T3, lysine-acetylated histone H4 peptide SGRGKGG-AcK-GLGK.
T3 construct: also called AcK peptide; AcK-containing H4 peptide
T3 peptide: SGRGKGGK(Ac)GLGK
Put plainly: NMR titration, 15N-HSQC.

Test [4] deals with T2, lysine-acetylated histone H4 peptide …. Put plainly: NMR titration, 15N-HSQC chemical shift changes.

B1: P/CAF bromodomain Tyr802Ala mutant, Q92831 719-832 (protein)
chain: SKEPRDPDQLYSTLKSILQQVKSHQSAWPFMEPVKRTEAPGYYEVIRFPMDLKTMSERLKNRYYVSKKLFMADLQRVFTNCKEANAAESEYYKCANILEKFFFSKIKEAGLIDK
modifications: here or on the partner: acetyl-lysine (AcK) at Lys8
As to B1, the Kd (as a rule, the constant that tells how readily two partners part at equilibrium) in test [1] was over 10 mM.

B2: P/CAF bromodomain (residues 719-832 of human p300/CBP-associated factor), wild-type (other)
chain: B1 chain with A84Y
notes: Expressed in E. coli with an N-terminal poly-His tag that thrombin removed; residues left over from the vector are not described; 15N-labelled for the NMR titration; also called hsp/CAF bromodomain; bromodomain of P/CAF
In the case of B2, the Kd in test [2] stood at 0.346 mM.

B3: P/CAF bromodomain Val752Ala mutant, Q92831 719-832 (protein)
chain: B1 chain with V34A, A84Y
modifications: here or on the partner: acetyl-lysine (AcK) at Lys8
In the case of B3, in test [1], the Kd is over 10 mM.

B4: P/CAF bromodomain Tyr760Ala mutant, Q92831 719-832 (protein)
chain: B1 chain with Y42A, A84Y
modifications: here or on the partner: acetyl-lysine (AcK) at Lys8
Consider B4, for which the Kd in test [1] was over 10 mM.

B5: P/CAF bromodomain Tyr809Ala mutant (other)
chain: B1 chain with A84Y, Y91A
notes: Made by site-directed mutagenesis of the wild-type bromodomain construct
Regarding B5, the binding result in test [3] is reported as “no binding”.

B6: P/CAF bromodomain Tyr809Ala mutant (other)
chain: B1 chain with A84Y, Y91A
notes: Point mutant of the P/CAF bromodomain made by site-directed mutagenesis
For the molecule B6, the binding result in test [4] is on record as “no binding”.
